Blank lines part the entries; values can stand above or below the molecule they belong to.
Legend:
Sco3058 [1] = biological target: T1, Sco3058 (Streptomyces coelicolor, UniProt Q93J45); experiment: crystal structure at […] Å; assay type: biochemical
T1 sequence (Q93J45 1-400): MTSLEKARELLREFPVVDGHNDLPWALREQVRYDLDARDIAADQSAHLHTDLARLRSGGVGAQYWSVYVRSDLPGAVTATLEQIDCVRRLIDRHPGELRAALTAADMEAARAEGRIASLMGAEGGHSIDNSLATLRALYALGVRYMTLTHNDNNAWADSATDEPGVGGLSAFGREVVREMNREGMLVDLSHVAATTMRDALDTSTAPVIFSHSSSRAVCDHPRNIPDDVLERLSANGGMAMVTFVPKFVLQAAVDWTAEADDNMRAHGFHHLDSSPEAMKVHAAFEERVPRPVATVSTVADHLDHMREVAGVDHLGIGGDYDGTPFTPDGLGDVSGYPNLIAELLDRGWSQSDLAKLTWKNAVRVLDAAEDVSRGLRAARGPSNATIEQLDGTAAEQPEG

Sco3058 [2] = biological target: T1, Sco3058; experiment: ninhydrin-based dipeptidase assay, L-Leu-D-Ala substrate; assay type: biochemical
[3] = substrate: CC(C)C[C@H](N)C(=O)N[C@H](C)C(=O)O; experiment: steady-state kinetics of hydrolysis by purified enzyme; assay type: biochemical, Streptomyces coelicolor; settings: […] Zn2+
[4] = substrate: CSCC[C@H](N)C(=O)N[C@H](CC(C)C)C(=O)O; experiment: as above; assay type: biochemical, Streptomyces coelicolor; settings: […] Zn2+
[5] = substrate: CC(C)C[C@H](N)C(=O)N[C@H](CCC(=O)O)C(=O)O; experiment: as above; assay type: biochemical, Streptomyces coelicolor; settings: […] Zn2+
[6] = substrate: CSCC[C@H](N)C(=O)N[C@H](CCC(=O)O)C(=O)O; experiment: as above; assay type: biochemical, Streptomyces coelicolor; settings: […] Zn2+
[7] = substrate: N=C(N)NCCC[C@H](N)C(=O)N[C@H](CC(=O)O)C(=O)O; experiment: as above; assay type: biochemical, Streptomyces coelicolor; settings: […] Zn2+
purified protein = substrate: CC(C)C[C@@H](NC(=O)[C@@H](N)Cc1ccc(O)cc1)C(=O)O; experiment: purified protein; settings: […] Zn2+

Ki (Sco3058 [2]): 2.3 ± 0.3 µM
Molecule: NC(Cc1ccccc1)P(=O)(O)CC(CC(=O)O)C(=O)O (racemic) [compound 2, phosphinate pseudodipeptide mimic of Phe-Asp]

Ki (Sco3058 [2]): 1.1 ± 0.2 µM
Molecule: NC(Cc1ccc(O)cc1)P(=O)(O)CC(CC(=O)O)C(=O)O (racemic) [compound 3, phosphinate pseudodipeptide mimic of Tyr-Asp]

More lines, now with the values behind:

Molecule: O=C(O)CC(O)(CC(=O)O)C(=O)O [citrate]
Ki (Sco3058 [1]): 25000 ± 15000 µM

B1: Sco3058 (Streptomyces coelicolor A3(2)) (protein)
chain: T1 sequence (Q93J45 1-400)
Km [3]: 750 ± 40 µM
kcat [3]: 160 ± 3 s⁻¹
kcat/Km [3]: 210000 ± 10000 M⁻¹ s⁻¹
Km [4]: 560 ± 30 µM
kcat [4]: 194 ± 4 s⁻¹
kcat/Km [4]: 350000 ± 30000 M⁻¹ s⁻¹
Km [5]: 550 ± 30 µM
kcat [5]: 135 ± 2 s⁻¹
kcat/Km [5]: 250000 ± 10000 M⁻¹ s⁻¹
Km [6]: 890 ± 40 µM
kcat [6]: 340 ± 4 s⁻¹
kcat/Km [6]: 380000 ± 20000 M⁻¹ s⁻¹
Km [7]: 140 ± 20 µM
kcat [7]: 107 ± 3.2 s⁻¹
kcat/Km [7]: 760000 ± 90000 M⁻¹ s⁻¹
Km (purified protein): 170 ± 10 µM
kcat (purified protein): 24 s⁻¹
kcat/Km (purified protein): 150000 M⁻¹ s⁻¹

Source: PMC2808448 (Biochemistry, 2010)
